We go through two molecules from patent US20220259301A1.

This test has as its target human IL-23 (human) (UniProt Q9NPF7).

Some results are limits rather than exact numbers.

Sequence of UniProt Q9NPF7 (Q9NPF7 20-189, chain 1 of 2): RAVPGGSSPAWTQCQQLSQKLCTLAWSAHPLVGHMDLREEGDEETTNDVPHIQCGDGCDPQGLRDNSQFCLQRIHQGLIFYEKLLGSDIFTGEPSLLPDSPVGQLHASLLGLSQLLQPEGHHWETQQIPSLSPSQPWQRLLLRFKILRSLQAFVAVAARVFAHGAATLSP
Sequence of UniProt Q9NPF7 (chain, as listed by the source, chain 2 of 2): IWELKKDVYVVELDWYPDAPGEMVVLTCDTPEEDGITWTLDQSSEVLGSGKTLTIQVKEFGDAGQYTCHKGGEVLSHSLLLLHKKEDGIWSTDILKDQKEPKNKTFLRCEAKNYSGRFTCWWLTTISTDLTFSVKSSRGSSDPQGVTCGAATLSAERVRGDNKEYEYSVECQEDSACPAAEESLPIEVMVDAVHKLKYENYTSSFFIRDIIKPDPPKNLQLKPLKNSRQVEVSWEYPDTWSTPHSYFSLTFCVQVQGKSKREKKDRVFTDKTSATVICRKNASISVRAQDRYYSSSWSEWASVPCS

As to ustekinumab (antibody), the IL-23 stimulated IL-17 production is 167 pM.

B1: Risankizumab (antibody, V domains shown)
VH: QVQLVQSGAEVKKPGSSVKVSCKASGYTFTDQTIHWMRQAPGQGLEWIGYIYPRDDSPKYNENFKGKVTITADKSTSTAYMELSSLRSEDTAVYYCAIPDRSGYAWFIYWGQGTLVTVSS
VL: DIQMTQSPSSLSASVGDRVTITCKASRDVAIAVAWYQQKPGKVPKLLIYWASTRHTGVPSRFSGSGSRTDFTLTISSLQPEDVADYFCHQYSSYPFTFGSGTKLEIKR
In the case of B1, the IL-23 stimulated IL-17 production was below 10 pM.
